Measured values: patent US20240209065A1 (SINGLOMICS BEIJING DANXU BIOPHARMACEUTICALS, published 2024)

Tests used:
Test in all cases: cell-based or functional assay
[1] = target: S protein of authentic SARS-CoV-2 Omicron BA.1 virus (SARS-CoV-2, UniProt P0DTC2 14-1273)
[2] = target: S protein of authentic SARS-CoV-2 Omicron BA.2 virus (SARS-CoV-2, UniProt P0DTC2 14-1273)
[3] = target: S protein of authentic SARS-CoV-2 Omicron BA.5 virus (SARS-CoV-2, UniProt P0DTC2 14-1273)
[4] = target: S protein (SΔ19) of Omicron BQ.1 pseudovirus (SARS-CoV-2, UniProt P0DTC2 14-1254)
[5] = target: S protein (SΔ19) of Omicron BQ.1.1 pseudovirus (SARS-CoV-2, UniProt P0DTC2 14-1254)

B1: DXP-604 monomeric IgA1 (antibody)
heavy: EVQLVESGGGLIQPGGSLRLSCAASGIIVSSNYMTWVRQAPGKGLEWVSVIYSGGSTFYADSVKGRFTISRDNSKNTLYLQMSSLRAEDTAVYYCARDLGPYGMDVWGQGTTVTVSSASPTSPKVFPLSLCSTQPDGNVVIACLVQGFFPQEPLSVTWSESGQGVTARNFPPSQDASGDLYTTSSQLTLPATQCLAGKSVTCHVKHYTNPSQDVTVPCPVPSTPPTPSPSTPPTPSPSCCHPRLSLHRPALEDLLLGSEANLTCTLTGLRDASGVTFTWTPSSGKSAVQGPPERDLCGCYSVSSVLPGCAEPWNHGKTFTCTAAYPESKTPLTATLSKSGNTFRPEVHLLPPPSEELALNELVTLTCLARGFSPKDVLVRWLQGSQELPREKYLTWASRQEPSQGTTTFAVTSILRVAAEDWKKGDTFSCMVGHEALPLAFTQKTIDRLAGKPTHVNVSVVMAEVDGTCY
light: DIQLTQSPSFLSASVGDRVTITCRASQGISSDLAWYQQKPGKAPNLLIYAASTLQSGVPSRFSGSGSGTEFTLTISSLQPEDFATYYCQQLNSDLYTFGQGTKLEIKRTVAAPSVFIFPPSDEQLKSGTASVVCLLNNFYPREAKVQWKVDNALQSGNSQESVTEQDSKDSTYSLSSTLTLSKADYEKHKVYACEVTHQGLSSPVTKSFNRGEC
[1]
  IC50, microneutralization assay with authentic virus: 3.43 nM
  fold increase of neutralization activity over parental IgG, authentic virus: 6.7 fold
[2]
  IC50, microneutralization assay with authentic virus: 0.16 nM
  fold increase of neutralization activity over parental IgG, authentic virus: 17 fold
[3]
  IC50, microneutralization assay with authentic virus: 0.35 nM
  fold increase of neutralization activity over parental IgG, authentic virus: 35.5 fold

B2: DXP-604 dimeric IgA1 (antibody)
heavy: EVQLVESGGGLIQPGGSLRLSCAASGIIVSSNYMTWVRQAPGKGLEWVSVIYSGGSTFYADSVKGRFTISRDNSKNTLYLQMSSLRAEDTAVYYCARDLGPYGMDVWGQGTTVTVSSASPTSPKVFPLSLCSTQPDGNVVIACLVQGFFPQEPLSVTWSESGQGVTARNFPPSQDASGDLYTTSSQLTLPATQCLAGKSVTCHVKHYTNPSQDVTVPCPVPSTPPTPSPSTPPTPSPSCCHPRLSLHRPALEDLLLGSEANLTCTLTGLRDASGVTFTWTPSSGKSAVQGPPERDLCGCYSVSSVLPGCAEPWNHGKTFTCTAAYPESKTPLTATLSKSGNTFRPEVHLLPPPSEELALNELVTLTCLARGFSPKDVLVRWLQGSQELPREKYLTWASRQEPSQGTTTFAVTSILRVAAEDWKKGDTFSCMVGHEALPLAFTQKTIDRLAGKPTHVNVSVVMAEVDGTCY
light: B1 light
chain: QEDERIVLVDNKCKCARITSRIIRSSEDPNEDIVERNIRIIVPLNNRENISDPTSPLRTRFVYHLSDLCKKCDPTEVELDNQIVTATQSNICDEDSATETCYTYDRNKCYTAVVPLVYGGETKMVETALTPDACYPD
[1]
  IC50, microneutralization assay with authentic virus: 0.38 nM
[2]
  IC50, microneutralization assay with authentic virus: 0.06 nM
[3]
  IC50, microneutralization assay with authentic virus: 0.13 nM
  fold more potent in neutralizing than IgG, authentic virus: 92 fold
[4]
  IC50, pseudovirus assay (HIV platform): 3.2 nM
  fold increase of neutralizing activity compared to IgG, pseudovirus: 2.6 fold
[5]
  IC50, pseudovirus assay (HIV platform): 4.88 nM
  fold increase of neutralizing activity compared to IgG, pseudovirus: 1.8 fold

B3: DXP-604 secretory IgA1 (antibody)
heavy: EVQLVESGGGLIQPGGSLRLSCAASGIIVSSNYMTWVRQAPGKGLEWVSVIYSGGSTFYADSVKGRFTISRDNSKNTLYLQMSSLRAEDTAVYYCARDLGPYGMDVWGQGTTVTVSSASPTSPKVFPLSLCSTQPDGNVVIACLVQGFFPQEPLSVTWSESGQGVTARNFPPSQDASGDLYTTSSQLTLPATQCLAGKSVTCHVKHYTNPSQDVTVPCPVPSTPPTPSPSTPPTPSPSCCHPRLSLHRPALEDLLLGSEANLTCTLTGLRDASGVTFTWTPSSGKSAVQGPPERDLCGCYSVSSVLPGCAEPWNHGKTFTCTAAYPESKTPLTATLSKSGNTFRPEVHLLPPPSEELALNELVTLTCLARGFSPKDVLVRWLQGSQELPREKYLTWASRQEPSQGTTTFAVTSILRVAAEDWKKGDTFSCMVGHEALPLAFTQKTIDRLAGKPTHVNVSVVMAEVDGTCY
light: B1 light
chain 1: not shown
chain 2: not shown
[1]
  IC50, microneutralization assay with authentic virus: 0.44 nM
[2]
  IC50, microneutralization assay with authentic virus: 0.03 nM
[3]
  IC50, microneutralization assay with authentic virus: 0.09 nM
[4]
  IC50, pseudovirus assay (HIV platform): 1.41 nM
  fold increase of neutralizing activity compared to IgG, pseudovirus: 6 fold
[5]
  IC50, pseudovirus assay (HIV platform): 1.59 nM
  fold increase of neutralizing activity compared to IgG, pseudovirus: 5.5 fold
